Measured values: patent publication US20060029601A1 (E R SQUIBB AND SONS L L C, published 2006)

T1: human interferon alpha receptor 1 (IFNAR-1) on cells (Daudi, U937, human peripheral blood mononuclear cells) (human, UniProt P17181 28-557)
T1 sequence (looked up): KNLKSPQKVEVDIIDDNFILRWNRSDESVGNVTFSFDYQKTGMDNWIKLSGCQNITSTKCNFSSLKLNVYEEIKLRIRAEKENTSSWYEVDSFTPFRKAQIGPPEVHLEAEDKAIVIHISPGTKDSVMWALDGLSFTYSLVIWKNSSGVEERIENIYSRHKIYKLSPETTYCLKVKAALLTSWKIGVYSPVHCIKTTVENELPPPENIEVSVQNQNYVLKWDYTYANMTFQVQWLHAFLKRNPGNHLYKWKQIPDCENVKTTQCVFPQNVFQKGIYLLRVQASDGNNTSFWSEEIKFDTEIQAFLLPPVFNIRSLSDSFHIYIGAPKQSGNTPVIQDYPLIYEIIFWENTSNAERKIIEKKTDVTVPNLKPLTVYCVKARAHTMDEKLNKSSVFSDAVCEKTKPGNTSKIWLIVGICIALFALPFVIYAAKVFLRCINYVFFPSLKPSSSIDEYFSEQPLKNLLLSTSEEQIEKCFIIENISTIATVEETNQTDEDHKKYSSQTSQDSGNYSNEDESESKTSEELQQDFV

T2: soluble CHO-derived human IFNAR-1 (human, UniProt P17181 28-436)
T2 construct: extracellular domain; also called soluble IFNAR-1
T2 sequence (looked up): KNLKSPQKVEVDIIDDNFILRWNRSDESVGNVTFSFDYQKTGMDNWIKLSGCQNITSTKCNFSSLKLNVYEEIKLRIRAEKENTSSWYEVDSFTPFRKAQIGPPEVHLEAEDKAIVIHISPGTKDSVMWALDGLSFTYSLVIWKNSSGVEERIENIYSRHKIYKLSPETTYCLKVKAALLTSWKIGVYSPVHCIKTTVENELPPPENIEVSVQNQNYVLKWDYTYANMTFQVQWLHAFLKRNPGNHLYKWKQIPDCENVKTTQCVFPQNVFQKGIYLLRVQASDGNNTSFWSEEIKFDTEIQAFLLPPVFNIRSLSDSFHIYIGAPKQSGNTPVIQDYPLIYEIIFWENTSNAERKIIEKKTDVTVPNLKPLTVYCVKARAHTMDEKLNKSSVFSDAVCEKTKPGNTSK


Columns and labels:
[1] = biological target: T1, human interferon alpha receptor 1 …; test: cell-based or functional assay
[2] = biological target: T1, human interferon alpha receptor 1 …; test: cell-based or functional assay; remark: listed apart in the source
[3] = biological target: T2, soluble CHO-derived human IFNAR-1; test: cross-competition ELISA on plate-coated soluble CHO-derived human IFNAR-1; titrated antibody against 64G12 at 0.3 ug/mL as competitor, detected with anti-mouse IgG (Fc) peroxidase, O.D. 415 nm

| Binder | Cell Proliferation (Daudi) EC50, blocking of IFN alpha 2b [1] [nM] | ISRE-RG Reporter (U937) EC50, blocking of IFN alpha 2b [1] [nM] | Cell Proliferation (Daudi) EC50, blocking of IFN omega [2] [nM] | IC50 (read off the curve) [3] [µg/mL] |
| --- | --- | --- | --- | --- |
| human monoclonal antibody 3F11 (antibody, IgG1, V domains shown) VH: QVQLQQWGAGLLKPSETLSLTCAVYGGSFSGYFWSWIRQPPGKGLEWIGEIDHSGKTNYNPSLKSRVTISVDTSKNQVSLKLSSVTAADTAVYYCARESKYYFGLDVWGQGTTVTVTS VL: AIQLTQSPSSLSASVGDRVTITCRASQGIYSVLAWYQQKPGKTPKLLIYDASRLESGVPSRFSGSGSGTDFTLTISSLQPEDFATYYCQQFNSYITFGQGTRLEIK | 0.3 | 1.2 | 0.6 | – |
| human monoclonal antibody 4G5 (antibody, IgG1, V domains shown) VH: QVQLQQWGAGLLKPSETLSLTCAVYGGSFSNYYWSWIRQPPGKGLEWIGEIILSGSTNYNPSLKSRVTISVDTSKNQFSLNLTSVTAADTAVYYCARESKWGYYFDSWGQGTLVTVSS VL: AIQLTQSPSSLSASVGDRVTITCRATQDISIALVWYQQKPGKAPELLIYDASGLGSGVPSRFSGSGSGTDFTLTISSLQPEDFATYYCQQFNSYPYTFGQGTKLEIK | – | – | 1.4 | – |
| human monoclonal antibody 9D4 (antibody, IgG1, V domains shown) VH: EVQLVQSGAEVKKPGESLKISCKGSGYIFTNYWIAWVRQMPGKGLESMGIIYPGDSDIRYSPSFQGQVTISADKSITTAYLQWSSLKASDTAMYYCARHDIEGFDYWGRGTLVTVSS VL: EIVLTQSPGTLSLSPGERATLSCRASQSVSSSFFAWYQQKPGQAPRLLIYGASSRATGIPDRLSGSGSGTDFTLTITRLEPEDFAVYYCQQYDSSAITFGQGTRLEIK | – | – | 0.3 | – |

Results, then the binder that gave them:

| Cell Proliferation (Daudi) EC50, blocking of IFN alpha 2b [1] [nM] | ISRE-RG Reporter (U937) EC50, blocking of IFN alpha 2b [1] [nM] | Cell Proliferation (Daudi) EC50, blocking of IFN omega [2] [nM] | IC50 (read off the curve) [3] [µg/mL] | Binder |
| --- | --- | --- | --- | --- |
| – | – | 0.3 | – | human monoclonal antibody 11E2 (antibody, IgG1, V domains shown) VH: EVQLVQSGAEVKKPGESLKISCKGSGYIFTNYWIAWVRQMPGKGLESMGIIYPGDSDIRYSPSFQGQVTISADKSITTAYLQWSSLKASDTAMYYCARHDIEGFDYWGRGTLVTVSS VL: EIVLTQSPGTLSLSPGERATLSCRASQSVSSSFFAWYQQKPGQAPRLLIYGASSRATGIPDRLSGSGSGTDFTLTITRLEPEDFAVYYCQQYDSSAITFGQGTRLEIK |
| 3.1 | 6 | 5.5 | ~0.7 | murine anti-IFNAR-1 antibody 64G12 (ECACC Deposit No. 92022605) (antibody, V domains shown) VH: QVTLKESGPGILKPSQTLSLTCSFSGFSLSTSGMGIGWIRQPSGKGLEWLAHIWWDDDKYYNPSLKSQLTISRDTSTNQVFLNITSVDTVDTATYYCGRNYYPYDAWFDYWGQGTLVTVS VL: EIVLTQSPTTMAASPGEKITITCSASSSINSNHLHWYQQKPGFSPKVLIYRTSILASGVPTRFSGSGSGTSYSLTIGTMEAEDVATYYCQQGSNIPFTFGSGTELEIKR |
